The target in test [1] is T1, Flag-PRMT5 (human, UniProt O14744 1-637).
T1 construct: Protein arginine methyltransferase 5 (PRMT5), wild-type cDNA in lentiviral vector CD532A; 637 aa by the printed domain limits; also called Flag-tagged full-length (FL) PRMT5; PRMT5-FL; source: HEK293T, co-expressed, in lysate; purified from HEK293T cells (for the GST pull-down)
The test is described as follows: pull-down; GST fusion proteins on glutathione-Sepharose 4B beads mixed with Flag-tagged proteins purified from HEK293T cells, 2 h at 4 °C; washed with 50 mM Tris-HCl pH 8.0, 0.2% NP-40, 150 mM NaCl, 2 mM EDTA; immunoblot. Particulars: both partners purified.

Test [2] concerns the target GST-fused LSD1 (human, UniProt O60341-2 1-876). Described as above. Particulars: both partners purified.

T1 sequence (O14744 whole entry, the tested form may be a part): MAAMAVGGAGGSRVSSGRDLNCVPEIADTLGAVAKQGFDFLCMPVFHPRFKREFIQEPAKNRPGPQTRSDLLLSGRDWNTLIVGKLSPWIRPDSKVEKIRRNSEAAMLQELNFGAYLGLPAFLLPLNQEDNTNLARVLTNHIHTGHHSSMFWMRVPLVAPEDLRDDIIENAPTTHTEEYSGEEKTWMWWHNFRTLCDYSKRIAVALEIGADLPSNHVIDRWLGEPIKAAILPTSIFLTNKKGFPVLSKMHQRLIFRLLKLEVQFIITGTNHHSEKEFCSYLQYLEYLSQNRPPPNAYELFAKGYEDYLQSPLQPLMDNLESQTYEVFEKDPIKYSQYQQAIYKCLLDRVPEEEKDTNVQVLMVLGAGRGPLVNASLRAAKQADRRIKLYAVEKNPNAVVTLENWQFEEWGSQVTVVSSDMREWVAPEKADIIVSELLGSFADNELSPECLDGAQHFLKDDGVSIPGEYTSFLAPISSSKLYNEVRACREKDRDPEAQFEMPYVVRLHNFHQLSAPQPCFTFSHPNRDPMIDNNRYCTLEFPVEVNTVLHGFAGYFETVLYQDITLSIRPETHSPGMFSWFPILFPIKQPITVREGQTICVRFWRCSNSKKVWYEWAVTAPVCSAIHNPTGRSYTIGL

B1: GST-fused Slug (natural protein, human, UniProt O43623 1-268, looked up)
chain: MPRSFLVKKHFNASKKPNYSELDTHTVIISPYLYESYSMPVIPQPEILSSGAYSPITVWTTAAPFHAQLPNGLSPLSGYSSSLGRVSPPPPSDTSSKDHSGSESPISDEEERLQSKLSDPHAIEAEKFQCNLCNKTYSTFSGLAKHKQLHCDAQSRKSFSCKYCDKEYVSLGALKMHIRTHTLPCVCKICGKAFSRPWLLQGHIRTHTGEKPFSCPHCNRAFADRSNLRAHLQTHSDVKKYQCKNCSKTFSRMSLLHKHEESGCCVAH
notes: Slug (SNAI2), cDNA in the bacterial expression vector pGEX-KG; also called GST-Slug
For B1, in test [1], the binding result was “binds”.

B2: Flag-Slug (natural protein)
chain: MPRSFLVKKHFNASKKPNYSELDTHTVIISPYLYESYSMPVIPQPEILSSGAYSPITVWTTAAPFHAQLPNGLSPLSGYSSSLGRVSPPPPSDTSSKDHSGSESPISDEEERLQSKLSDPHAIEAEKFQCNLCNKTYSTFSGLAKHKQLHCDAQSRKSFSCKYCDKEYVSLGALKMHIRTHTLPCVCKICGKAFSRPWLLQGHIRTHTGEKPFSCPHCNRAFADRSNLRAHLQTHSDVKKYQCKNCSKTFSRMSLLHKHEESGCCVAH
notes: Slug (SNAI2), wild-type cDNA in lentiviral vector CD532A; 268 aa by the printed limits of the fragments; also called Flag-tagged Slug-FL; Flag-tagged Slug; source: HEK293T, expressed, in lysate; purified from HEK293T cells (for the GST pull-down)
In the case of B2, the binding result in test [2] is listed as “binds”.

(Values after article PMC9164399, “The PRMT5-LSD1 axis confers Slug dual transcriptional activities and promotes breast cancer progression” (Journal of Experimental & Clinical Cancer Research : CR, 2022).)
